The values below come from IntAct's records for PubMed 12351681.

The labels stand for the following.
B1: Protein Tube (Drosophila melanogaster (Fruit fly)), P22812 (parent)
chain: MAYGWNGCGMGVQVNGSNGAIGLSSKYSRNTELRRVEDNDIYRLAKILDENSCWRKLMSIIPKGMDVQACSGAGCLNFPAEIKKGFKYTAQDVFQIDEAANRLPPDQSKSQMMIDEWKTSGKLNERPTVGVLLQLLVQAELFSAADFVALDFLNESTPARPVDGPGALISLELLEEEMEVDNEGLSLKYQSSTATLGADAQGSVGLNLDNFEKDIVRRDKSVPQPSGNTPPIAPPRRQQRSTTNSNFATLTGTGTTSTTIPNVPNLTILNPSEQIQEPVLQPRPMNIPDLSILISNSGDLRATVSDNPSNRTSSTDPPNIPRITLLIDNSGDVNSRPNHAPAKASTATTSTASSNNLPMISALNISKGSRETLRPESRSSSSSLSKDDDDDNDGEEDGEEEYPDAFLPNLSNSEQQSSNNDSSLTTVTGTSGDNSFELTNDSSSTSNDDYACNIPDLSELQQ
partner: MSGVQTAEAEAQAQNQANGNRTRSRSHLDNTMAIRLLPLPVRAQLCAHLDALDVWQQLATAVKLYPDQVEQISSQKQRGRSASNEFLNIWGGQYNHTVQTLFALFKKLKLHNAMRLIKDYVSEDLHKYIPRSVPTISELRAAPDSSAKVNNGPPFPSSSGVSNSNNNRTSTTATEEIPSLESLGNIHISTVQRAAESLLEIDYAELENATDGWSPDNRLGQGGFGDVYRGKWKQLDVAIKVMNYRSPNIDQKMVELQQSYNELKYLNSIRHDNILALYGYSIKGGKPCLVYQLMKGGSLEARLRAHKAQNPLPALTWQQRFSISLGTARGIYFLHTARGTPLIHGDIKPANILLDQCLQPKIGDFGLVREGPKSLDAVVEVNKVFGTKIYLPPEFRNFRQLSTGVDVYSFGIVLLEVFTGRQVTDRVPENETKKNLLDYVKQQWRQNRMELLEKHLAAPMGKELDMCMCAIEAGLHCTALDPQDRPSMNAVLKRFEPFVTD

Variants of B1 are the subject of the test. Particulars: with kpel_drome pll.
On to E50K, for which the “effect of a mutation on the interaction” value is on record as “decreasing interaction”.
